Data: patent US20140087995A1 (published 2014)
Numbered stars: 1 amine (or outer) side, 2 acyl side, 3 side chain; on linkers, the order of the positions; unused ones are H or OH. Bridge positions count the residues as written; N and C are the ends. Side chains are listed from the residue outwards. Ends that are not written are not given here. * marks the point of attachment. C20 diacid = O=C(O)CCCCCCCCCCCCCCCCCCC(=O)*; γGlu = O=C(O)[C@H](CCC(=O)[*:2])N[*:1]; AEEA = NCCOCCOCC(=O)O

T1: human amylin 3(a) receptor (human calcitonin receptor co-expressed with RAMP-3) (human, UniProt P30988 25-474; O60896 24-148, limits assumed)
T1 sequence (looked up) 1: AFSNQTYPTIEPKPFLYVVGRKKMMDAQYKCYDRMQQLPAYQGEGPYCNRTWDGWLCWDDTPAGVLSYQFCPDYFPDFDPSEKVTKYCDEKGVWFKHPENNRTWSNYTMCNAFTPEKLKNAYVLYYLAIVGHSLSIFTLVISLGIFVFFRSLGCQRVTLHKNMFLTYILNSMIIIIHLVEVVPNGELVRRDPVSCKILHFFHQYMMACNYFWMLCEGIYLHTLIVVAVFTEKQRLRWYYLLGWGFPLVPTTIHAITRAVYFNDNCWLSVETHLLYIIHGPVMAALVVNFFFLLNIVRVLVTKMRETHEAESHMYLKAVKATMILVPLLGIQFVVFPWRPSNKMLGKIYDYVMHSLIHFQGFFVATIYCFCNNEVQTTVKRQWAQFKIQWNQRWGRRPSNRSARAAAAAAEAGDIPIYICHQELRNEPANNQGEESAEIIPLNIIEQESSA
T1 sequence (looked up) 2: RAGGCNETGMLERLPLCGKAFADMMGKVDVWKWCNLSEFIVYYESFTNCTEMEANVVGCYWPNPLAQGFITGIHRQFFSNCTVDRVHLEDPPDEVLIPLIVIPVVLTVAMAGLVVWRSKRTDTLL

T2: human calcitonin receptor (human, UniProt P30988 25-474)
T2 sequence (looked up): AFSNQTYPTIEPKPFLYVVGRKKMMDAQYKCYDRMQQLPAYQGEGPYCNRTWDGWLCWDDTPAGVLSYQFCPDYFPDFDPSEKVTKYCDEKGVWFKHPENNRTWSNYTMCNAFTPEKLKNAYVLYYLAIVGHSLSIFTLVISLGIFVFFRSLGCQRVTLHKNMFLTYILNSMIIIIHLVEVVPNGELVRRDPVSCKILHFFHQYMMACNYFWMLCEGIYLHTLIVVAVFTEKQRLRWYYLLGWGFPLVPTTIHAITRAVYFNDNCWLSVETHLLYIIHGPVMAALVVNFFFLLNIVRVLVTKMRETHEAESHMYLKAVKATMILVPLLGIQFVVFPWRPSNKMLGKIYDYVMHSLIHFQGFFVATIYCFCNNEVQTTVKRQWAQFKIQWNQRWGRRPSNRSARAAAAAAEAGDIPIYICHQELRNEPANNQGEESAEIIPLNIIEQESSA


What was measured:
[1] = biological target: T1, human amylin 3(a) receptor (human …); test: cell-based or functional assay
[2] = biological target: T2, human calcitonin receptor; test: cell-based or functional assay

Binder | Ratio hCT/hAmylin funct. [1] | hCTR funct. EC50 [2] [nM] | hAmylin-R funct. EC50 [1] [nM]
{C20 diacid-γGlu-γGlu}-KCNTATCATQRLAEFLRHSSPNFGAIPSSTNVGSNTY-NH2 (disulfide 2-7; SMILES CC[C@H](C)[C@H](NC(=O)[C@H](C)NC(=O)CNC(=O)[C@H](Cc1ccccc1)NC(=O)[C@H](CC(N)=O)NC(=O)[C@@H]1CCCN1C(=O)[C@H](CO)NC(=O)[C@H](CO)NC(=O)[C@H](Cc1c[nH]cn1)NC(=O)[C@H](CCCNC(=N)N)NC(=O)[C@H](CC(C)C)NC(=O)[C@H](Cc1ccccc1)NC(=O)[C@H](CCC(=O)O)NC(=O)[C@H](C)NC(=O)[C@H](CC(C)C)NC(=O)[C@H](CCCNC(=N)N)NC(=O)[C@H](CCC(N)=O)NC(=O)[C@@H](NC(=O)[C@H](C)NC(=O)[C@@H]1CSSC[C@H](NC(=O)[C@H](CCCCN)NC(=O)CC[C@H](NC(=O)CC[C@H](NC(=O)CCCCCCCCCCCCCCCCCCC(=O)O)C(=O)O)C(=O)O)C(=O)N[C@@H](CC(N)=O)C(=O)N[C@@H]([C@@H](C)O)C(=O)N[C@@H](C)C(=O)N[C@@H]([C@@H](C)O)C(=O)N1)[C@@H](C)O)C(=O)N1CCC[C@H]1C(=O)N[C@@H](CO)C(=O)N[C@@H](CO)C(=O)N[C@H](C(=O)N[C@@H](CC(N)=O)C(=O)N[C@H](C(=O)NCC(=O)N[C@@H](CO)C(=O)N[C@@H](CC(N)=O)C(=O)N[C@H](C(=O)N[C@@H](Cc1ccc(O)cc1)C(N)=O)[C@@H](C)O)C(C)C)[C@@H](C)O, h-amylin derivative; disulfide bridge and C-terminal amide as told for human amylin; also called compound 15) | 8.9 | 3.43 | 
K([AEEA-γGlu-C20 diacid])CNTATCATQRLANFLRHSSPNFGAIPPSTPVGSNTY-NH2 (disulfide 2-7, h-amylin derivative; disulfide bridge and C-terminal amide as told for human amylin; also called compound 53) | 9.8 | 0.625 | 
K([AEEA-γGlu-C20 diacid])CNTATCATQRLANFLRHSSPNFGAIPPSTNVGPNTY-NH2 (disulfide 2-7; N-terminus assumed; SMILES CC[C@H](C)[C@H](NC(=O)[C@H](C)NC(=O)CNC(=O)[C@H](Cc1ccccc1)NC(=O)[C@H](CC(N)=O)NC(=O)[C@@H]1CCCN1C(=O)[C@H](CO)NC(=O)[C@H](CO)NC(=O)[C@H](Cc1c[nH]cn1)NC(=O)[C@H](CCCNC(=N)N)NC(=O)[C@H](CC(C)C)NC(=O)[C@H](Cc1ccccc1)NC(=O)[C@H](CC(N)=O)NC(=O)[C@H](C)NC(=O)[C@H](CC(C)C)NC(=O)[C@H](CCCNC(=N)N)NC(=O)[C@H](CCC(N)=O)NC(=O)[C@@H](NC(=O)[C@H](C)NC(=O)[C@@H]1CSSC[C@H](NC(=O)[C@@H](N)CCCCNC(=O)COCCOCCNC(=O)CC[C@H](NC(=O)CCCCCCCCCCCCCCCCCCC(=O)O)C(=O)O)C(=O)N[C@@H](CC(N)=O)C(=O)N[C@@H]([C@@H](C)O)C(=O)N[C@@H](C)C(=O)N[C@@H]([C@@H](C)O)C(=O)N1)[C@@H](C)O)C(=O)N1CCC[C@H]1C(=O)N1CCC[C@H]1C(=O)N[C@@H](CO)C(=O)N[C@H](C(=O)N[C@@H](CC(N)=O)C(=O)N[C@H](C(=O)NCC(=O)N1CCC[C@H]1C(=O)N[C@@H](CC(N)=O)C(=O)N[C@H](C(=O)N[C@@H](Cc1ccc(O)cc1)C(N)=O)[C@@H](C)O)C(C)C)[C@@H](C)O, h-amylin derivative; disulfide bridge and C-terminal amide as told for human amylin; also called compound 55) |  | 0.731 | 0.068
